Experimental data as given in PMC3772987.

Columns and labels:
His6-BosR = His6-BosR (Borrelia burgdorferi B31, UniProt O51592 2-176); assay: fluorescence anisotropy
BosR tag-free = BosR tag-free (Borrelia burgdorferi B31, UniProt O51592 1-176, M1R); assay: fluorescence anisotropy

B1: FPospD (dsDNA)
DNA 1: ATAATTGATATTAAAATATAATTGAT
DNA 2: ATCAATTATATTTTAATATCAATTAT
Question: What does the source list for B1?
Answer: Kd (His6-BosR): 0.262 µM; Kd (BosR tag-free): 0.332 µM

B2: FPospAB (dsDNA)
DNA 1: TAATCTTATAATATAATTATACTT
DNA 2: AAGTATAATTATATTATAAGATTA
Question: What does the source list for B2?
Answer: Kd (His6-BosR): 0.222 µM; Kd (BosR tag-free): 0.307 µM
